Experiment [1] addresses human tissue factor on cells (human, UniProt P13726 33-295). Kind of experiment: cell-based or functional assay.
In experiment [2] the target is T1, human tissue factor (human TF, Lake Pharma) (human, UniProt P13726 33-251, limits assumed).
T1 construct: bought recombinant antigen; also called CD142
Kind of experiment: Biacore SPR, single-point off-rate (100 nM antigen), antibody captured on anti-Fc. As to the method: (§1) Anti-Fc polyclonal antibodies were immobilized onto a CM4 chip (Cytiva #BR100534) using amine coupling chemistry (Human Antibody Capture Kit, Cytiva #BR100839). The immobilization steps were carried out at a flow rate of 25 μL/min in 1×HBS-EP+buffer (Cytiva #BR100669). The sensor surfaces were activated for 7 min with a mixture of N-hydroxysuccinimide (NHS, 0.05 M) and 1-ethyl-3-(3-dimethylaminopropyl)-carbodiimide (EDC, 0.2 M). The anti-Fc polyclonal antibodies were injected over all 4 flow cells at a concentration of 25 μg/mL in 10 mM sodium acetate, pH 4.5, for 7 min. Ethanolamine (1 M, pH 8.5) was injected for 7 min to block any remaining activated groups.
(§2) Off-rate and kinetic binding experiments were performed at 25° C. using 1×HBS-EP+buffer. Antibodies were injected over the anti-Fc surface at a concentration of 3 μg/mL for 12 seconds at a flow rate of 10 μL/min on flow cells 2, 3 and 4, followed by a buffer wash for 30 seconds at the same flow rate. Single point off-rate analysis was carried out using an antigen concentration of 100 nM. […] After capturing ligand (antibody) on the anti-Fc surface, the analyte (human TF, Lake Pharma; cynomolgus TF, Sino Bio #90885-C08H; mouse TF, R&D Systems #3178-PA) was bound for 180 seconds, followed by a 420 second dissociation phase at a flow rate of […]. Between each ligand capture and analyte binding cycle, regeneration was carried out using 2 injections of 10 mM glycine pH 2.0 for 30 seconds at 30 μL/min, followed by a 30 second buffer wash step.
Background: In SPR one partner is held on a chip, and binding of the other changes the refractive index at the surface.

Experiment [3] has as its target T2, cynomolgus tissue factor (cynomolgus TF, Sino Bio #90885-C08H) (cynomolgus monkey, UniProt P13726 33-251 (human entry)).
T2 construct: bought recombinant antigen; also called cyno TF
T2 chain: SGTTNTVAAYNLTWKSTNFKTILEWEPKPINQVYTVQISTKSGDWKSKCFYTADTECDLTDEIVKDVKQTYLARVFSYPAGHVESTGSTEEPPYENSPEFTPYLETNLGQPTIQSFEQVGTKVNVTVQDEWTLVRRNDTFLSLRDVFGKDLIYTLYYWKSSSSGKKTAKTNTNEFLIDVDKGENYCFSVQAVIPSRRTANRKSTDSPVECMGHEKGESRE
The experiment is described as above. As to the method:
as §1, §2

In experiment [4] the target is tissue factor reagent of the Tissue Factor Activity Assay Kit (Abcam #ab108906) (UniProt P13726 33-295, limits assumed). Kind of experiment: cell-based or functional assay.

B1: Conjugate 6: 2900-A02 Y180/F241/F404/k42-LP1 (antibody, human IgG1, kappa)
heavy: MEVQLVESGGGLVQPGGSLRLSCAASGFTISGYIIHWVRQAPGKGLEWVGYIDPSNGYTYYADSVKGRFTISADTSKNTAYLQMNSLRAEDTAVYYCARDDQSLSSPFDYWGQGTLVTVSSASTKGPSVFPLAPSSKSTSGGTAALGCLVKDYFPEPVTVSWNSGALTSGVHTFPAVLQSSGLSLSSVVTVPSSSLGTQTYICNVNHKPSNTKVDKKVEPKSCDKTHTCPPCPAPELLGGPSVLFPPKPKDTLMISRTPEVTCVVVDVSHEDPEVKFNWYVDGVEVHNAKTKPREEQYNSTYRVVSVLTVLHQDWLNGKEYKCKVSNKALPAPIEKTISKAKGQPREPQVYTLPPSREEMTKNQVSLTCLVKGFYPSDIAVEWESNGQPENNYKTTPPVLDSDGSFLYSKLTVDKSRWQQGNVFSCSVMHEALHNHYTQKSLSLSPGK
light: MDIQMTQSPSSLSASVGDRVTITCRASQDVNTAVAWYQQKPGAPKLLIYSASFLYSGVPSRFSGSRSGTDFTLTISSLQPEDFATYYCQQHYTTPPTFGQGTKVEIKRTVAAPSVFIFPPSDEQLKSGTASVVCLLNNFYPREAKVQWKVDNALQSGNSQESVTEQDSKDSTYSLSSTLTLSKADYEKHKVYACEVTHQGLSSPVTKSFNRGEC
modifications: pAMF at K42 linked to LP1; pAMF at Y180, F241 and F404 (EU), each linked to LP1 (DBCO-Valcit-pAB-hemiasterlin)
On to B1, for which, in experiment [1], the “cell killing EC50, HCC1954 (TF+++)” value came out at 0.085 nM; the “cell killing EC50, HCC1954, with 0.5 uM unconjugated mAb 40” value was greater than 100 nM; the “cell killing EC50, NCI-H292 (TF++++)” value was 0.044 nM; the “cell killing EC50, NCI-H292, with 0.5 uM unconjugated mAb 40” value is greater than 100 nM. In experiment [1], the “cell killing EC50, NCI-H1975 (TF++)” value is roughly 5 nM; the “cell killing EC50, NCI-H1975, with 0.5 uM unconjugated mAb 40” value is greater than 100 nM; the “cell killing Span, HCC1954 (TF+++)” value amounted to 93%; the “cell killing Span, NCI-H292 (TF++++)” value turned out to be 86%. In experiment [1], the “cell killing Span, NCI-H1975 (TF++)” value was 71%.

B2: SRP2900-C01 (antibody, IgG1, V domains shown)
VH: EVQLVESGGGLVQPGGSLRLSCAASGFTIGSYWIHWVRQAPGKGLEWVGYIDPSNGYTYYADSVKGRFTISADTSKNTAYLQMNSLRAEDTAVYYCARADYYYVDEYWDYWGQGTLVTVSS
VL: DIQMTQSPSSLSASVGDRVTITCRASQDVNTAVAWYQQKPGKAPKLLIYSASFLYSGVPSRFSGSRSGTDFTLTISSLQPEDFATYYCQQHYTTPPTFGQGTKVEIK
As a reminder, the koff is a measure of how fast the partners let go of each other. A higher koff goes with fast dissociation. In the case of B2, the results for the koff in experiment [2] and in experiment [3] were 0.00183 s⁻¹ and 0.00118 s⁻¹, respectively. The “FX conversion (% inhibition), 1000 nM antibody” value (from here on “FX conversion (% inhibition)”) in experiment [4] came out at 16.4%.

B3: SRP2900-A02 (antibody, IgG1, V domains shown)
VH: MEVQLVESGGGLVQPGGSLRLSCAASGFTISGYIIHWVRQAPGKGLEWVGYIDPSNGYTYYADSVKGRFTISADTSKNTAYLQMNSLRAEDTAVYYCARDDQSLSSPFDYWGQGTLVTVSS
VL: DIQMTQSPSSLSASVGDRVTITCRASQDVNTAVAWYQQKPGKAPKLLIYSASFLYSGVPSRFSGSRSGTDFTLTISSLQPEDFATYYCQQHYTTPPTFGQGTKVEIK
As for B3, the values for the koff in experiment [2] and in experiment [3] were 0.00116 s⁻¹ and 0.000761 s⁻¹, respectively. In addition, the “FX conversion (% inhibition)” value in experiment [4] turned out to be 0.21%.

B4: SRP2900-F08 (antibody, IgG1, V domains shown)
VH: EVQLVESGGGLVQPGGSLRLSCAASGFTIAYYIIHWVRQAPGKGLEWVGYIDPSNGYTYYADSVKGRFTISADTSKNTAYLQMNSLRAEDTAVYYCARDDQSLSSPFDYWGQGTLVTVSS
VL: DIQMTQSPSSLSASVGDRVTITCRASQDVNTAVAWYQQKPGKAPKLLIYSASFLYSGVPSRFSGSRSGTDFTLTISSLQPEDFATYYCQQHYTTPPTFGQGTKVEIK
As to B4, the koff in experiment [2] worked out at 0.00131 s⁻¹; in experiment [3] it was 0.000665 s⁻¹. For the same molecule, in experiment [4], the “FX conversion (% inhibition)” value is 9.78%.

B5: SRP2900-G03 (antibody, IgG1, V domains shown)
VH: EVQLVESGGGLVQPGGSLRLSCAASGFTINNYIIHWVRQAPGKGLEWVGYIDPSNGYTYYADSVKGRFTISADTSKNTAYLQMNSLRAEDTAVYYCARDPQSLSSPFDYWGQGTLVTVSS
VL: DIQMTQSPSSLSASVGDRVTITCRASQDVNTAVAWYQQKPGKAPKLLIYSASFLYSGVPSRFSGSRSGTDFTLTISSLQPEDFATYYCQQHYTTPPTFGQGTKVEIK
As for B5, the koff in experiment [2] is 0.000699 s⁻¹; in experiment [3] it was 0.00195 s⁻¹. In addition, the “FX conversion (% inhibition)” value in experiment [4] stood at 20%.

B6: SRP2900-E07 (antibody, IgG1, V domains shown)
VH: EVQLVESGGGLVQPGGSLRLSCAASGFTISQYWIHWVRQAPGKGLEWVGYIDPYNGYTYYADSVKGRFTISADTSKNTAYLQMNSLRAEDTAVYYCARDYGSLRVSLDYWGQGTLVTVSS
VL: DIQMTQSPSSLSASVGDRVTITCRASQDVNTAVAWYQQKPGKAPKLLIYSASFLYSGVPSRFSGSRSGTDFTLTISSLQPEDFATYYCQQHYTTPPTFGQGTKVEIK
B6: the koff in experiment [2] was 0.000511 s⁻¹; in experiment [3] it was 0.00113 s⁻¹. Further, the “FX conversion (% inhibition)” value in experiment [4] came to 15.6%.

B7: SRP2900-E06 (antibody, IgG1, V domains shown)
VH: EVQLVESGGGLVQPGGSLRLSCAASGFTISGYIIHWVRQAPGKGLEWVGYIDPSNGYTYHADSVKGRFTISADTSKNTAYLQMNSLRAEDTAVYYCARDDQSVSSPFDYWGQGTLVTVSS
VL: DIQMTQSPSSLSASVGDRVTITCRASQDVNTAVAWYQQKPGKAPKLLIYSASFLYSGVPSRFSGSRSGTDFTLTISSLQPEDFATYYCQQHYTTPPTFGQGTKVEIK
As to B7, the koff in experiment [2] stood at 0.000978 s⁻¹; in experiment [3], 0.000689 s⁻¹. For the same molecule, the “FX conversion (% inhibition)” value in experiment [4] amounted to 18.7%.

B8: SRP2900-G05 (antibody, IgG1, V domains shown)
VH: EVQLVESGGGLVQPGGLLRLSCAASGFTIAYYVIHWVRQAPGKGLEWVGYIDPSNGYTYYADSVKGRFTISADTSKNTAYLQMNSLRAEDTAVYYCARDDQSLSSPFDYWGQGTLVTVSS
VL: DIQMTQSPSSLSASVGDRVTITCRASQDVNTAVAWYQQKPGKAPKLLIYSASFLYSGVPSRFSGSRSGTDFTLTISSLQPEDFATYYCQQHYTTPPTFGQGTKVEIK
Take B8: the koff in experiment [2] amounted to 0.00115 s⁻¹; in experiment [3], 0.000667 s⁻¹. In experiment [4], the “FX conversion (% inhibition)” value was 12.1%.

B9: SRP2900-H07 (antibody, IgG1, V domains shown)
VH: EVQLVESGGGLVQPGGSLRLSCAASGFNIAYYTIHWVRQAPGKGLEWVGYIDPSNGYTYYADSVKGRFTISADTSKNTAYLQMNSLRAEDTAVYYCARDPQSFSSPFDYWGQGTLVTVSS
VL: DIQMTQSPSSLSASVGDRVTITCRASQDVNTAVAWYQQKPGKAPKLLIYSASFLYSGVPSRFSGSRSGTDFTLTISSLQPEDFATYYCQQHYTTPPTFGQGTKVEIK
For B9, the koff in experiment [2] worked out at 0.00205 s⁻¹; in experiment [3], 0.0013 s⁻¹. For the same molecule, in experiment [4], the “FX conversion (% inhibition)” value is 13.5%.

B10: SRP2900-F11 (antibody, IgG1, V domains shown)
VH: EVQLVESGGGLVQPGGSLRLSCAASGFTISGYIIHWVRQAPGKGLEWVGYIDPSNGYTFYADSVKGRFTISADTSKNTAYLRMNSLRAEDTAVYYCARDDQSLSSPFDYWGQGTLVTVSS
VL: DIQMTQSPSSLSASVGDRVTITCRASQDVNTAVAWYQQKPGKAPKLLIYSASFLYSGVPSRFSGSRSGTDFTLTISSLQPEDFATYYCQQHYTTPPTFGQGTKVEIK
Consider B10, for which the results for the koff in experiment [2] and in experiment [3] were 0.00204 s⁻¹ and 0.00115 s⁻¹, respectively. Also, the “FX conversion (% inhibition)” value in experiment [4] turned out to be 6.38%.

B11: SRP2900-F06 (antibody, IgG1, V domains shown)
VH: EVQLVESGGGLVQPGGSLRLSCAASGFTISIYTIHWVRQAPGKGLEWVGYIDPSNGYTYYADSVKGRLTISADTSKNTAYLQMNSLRAEDTAVYYCARDPQSISSPFDYWGQGTLVTVSS
VL: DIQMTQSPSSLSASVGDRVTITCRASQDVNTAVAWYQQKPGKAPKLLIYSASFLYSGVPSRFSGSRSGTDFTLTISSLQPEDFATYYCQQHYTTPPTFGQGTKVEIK
With B11, the figures for the koff in experiment [2] and in experiment [3] were 0.00423 s⁻¹ and 0.00184 s⁻¹, respectively. Moreover, the “FX conversion (% inhibition)” value in experiment [4] amounted to 1.72%.

B12: SRP2900-E02 (antibody, IgG1, V domains shown)
VH: EVQLVESGGGLVQPGGSLRLSCAASGFTISDYVIHWVRQAPGKGLEWVGYIDPSNGYTYYADPVKGRFTISADTSKNTAYLQMNSLRAEDTAVYYCARDPQSFYIAFDYWGQGTLVTVSS
VL: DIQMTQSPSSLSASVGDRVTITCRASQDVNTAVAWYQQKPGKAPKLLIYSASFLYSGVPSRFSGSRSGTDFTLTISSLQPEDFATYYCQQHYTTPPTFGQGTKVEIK
In the case of B12, the koff is 0.000528 s⁻¹ in experiment [2] and 0.00182 s⁻¹ in experiment [3]. In addition, the “FX conversion (% inhibition)” value in experiment [4] was 17.7%.

B13: SRP2900-F09 (antibody, IgG1, V domains shown)
VH: EVQLVESGGGLVQPGGSLRLSCAASGFTIHDYVIHWVRQAPGKGLEWVGYIDPSNGYTYYADSVKGRFTISADTSKNTAYLQMNSLRAEDTAVYYCARDDQSISSPLDYWGQGTLVTVSS
VL: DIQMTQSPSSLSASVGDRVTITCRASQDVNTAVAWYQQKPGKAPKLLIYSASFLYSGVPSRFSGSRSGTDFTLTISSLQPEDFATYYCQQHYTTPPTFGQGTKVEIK
On to B13, for which the off-rate constant (koff) in experiment [2] came to 0.00139 s⁻¹; in experiment [3], 0.00215 s⁻¹. Further, the “FX conversion (% inhibition)” value in experiment [4] was determined as 5.23%.

B14: SRP2900-G02 (antibody, IgG1, V domains shown)
VH: EVQLVESGGDLVRPGGSLRLSCAASGFTISYYIIHWVRQAPGKGLEWVGYIDPSNGYTYYADSVKGRFTISADTSKNTAYLQMNSLRAEDTAVYYCARDDQSVSSPFEYWGQGTLVTVSS
VL: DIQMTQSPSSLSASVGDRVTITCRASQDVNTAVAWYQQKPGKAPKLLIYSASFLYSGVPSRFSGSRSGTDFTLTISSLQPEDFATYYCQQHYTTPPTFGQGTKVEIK
Turning to B14, the koff in experiment [2] stood at 0.00415 s⁻¹; in experiment [3], 0.00141 s⁻¹. Also, the “FX conversion (% inhibition)” value in experiment [4] was -0.11%.

B15: SRP2900-C11 (antibody, IgG1, V domains shown)
VH: EVQLVESGGGLVQPGGSLRLSCAASGFTISQYWIHWVRQAPGKGLEWVGYIDPYNGYTYYADSVKGRFTISADTSKNTAYLQMNSLRAEDTAVYYCARDYGSWRIRLDYWGQGTLVTVSS
VL: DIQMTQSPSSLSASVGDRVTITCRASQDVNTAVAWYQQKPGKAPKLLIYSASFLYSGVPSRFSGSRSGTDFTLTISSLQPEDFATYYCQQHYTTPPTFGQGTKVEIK
As for B15, the koff in experiment [2] turned out to be 0.000842 s⁻¹; in experiment [3], 0.00257 s⁻¹. In addition, the “FX conversion (% inhibition)” value in experiment [4] is 12.4%.

B16: SRP2900-H06 (antibody, IgG1, V domains shown)
VH: EVQLVESGGGLVQPGGSLRLSCAASGFTIAAYIIHWVRQAPGKGLEWVGYIDPSNGYTYYADSVKGRFTISADTSKNTAYLQMNSLRAEDTAVYYCARDDQSFSSPFDYWGQGTLVTVSS
VL: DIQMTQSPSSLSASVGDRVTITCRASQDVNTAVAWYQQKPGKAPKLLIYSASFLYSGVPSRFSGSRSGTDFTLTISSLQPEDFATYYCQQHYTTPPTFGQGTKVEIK
In the case of B16, the results for the koff in experiment [2] and in experiment [3] were 0.00347 s⁻¹ and 0.000648 s⁻¹, respectively. Also, the “FX conversion (% inhibition)” value in experiment [4] was 4.04%.

B17: SRP2900-F02 (antibody, IgG1, V domains shown)
VH: EVQLVESGGGLVQPGGSLRLACAASGFTIGVYIIHWVRQAPGKGLEWVGYIDPSNGYTYYADSVKGRFTISADTSKNTAYLQMNSLRAEDTAVYYCARDDQSVSSPFDYWGQGTLVTVSS
VL: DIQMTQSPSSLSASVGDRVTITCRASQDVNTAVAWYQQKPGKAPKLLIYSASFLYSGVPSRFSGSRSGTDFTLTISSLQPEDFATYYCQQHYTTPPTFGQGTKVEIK
Regarding B17, the koff in experiment [2] was found to be 0.00274 s⁻¹; in experiment [3] it was 0.000696 s⁻¹. Besides, the “FX conversion (% inhibition)” value in experiment [4] stood at 0.23%.

Values taken from US20250122306A1 (SUTRO BIOPHARMA, published 2025).
